The target of data set [1] is T1, SP1 (human, UniProt P08047 1-785). The data set is described as follows: BLI; 100 nM SP1; negligible binding; BLI: 25 mM HEPES pH 7.5, 100 mM KCl, 12.5 mM MgCl2, 20% glycerol, 0.1% Igepal CA-630, 0.01 mM Zn(OAc)2, 1 mM DTT, 3% BSA, temperature not stated; pull-down: oligos annealed in 10 mM Tris-HCl pH 7.4 with (G4) or without (ds) 100 mM KCl. The conditions noted are these: protein: recombinant. In general terms: In BLI a coated tip is dipped into the sample, and binding shifts an interference pattern.

Data set [2] has as its target T1, SP1. In words: BLI; 100 mM KCl, 12.5 mM MgCl2, 0.01 mM Zn(OAc)2; apparent, most abundant population, 2:1 heterogeneous ligand fit; BLI: 25 mM HEPES pH 7.5, 100 mM KCl, 12.5 mM MgCl2, 20% glycerol, 0.1% Igepal CA-630, 0.01 mM Zn(OAc)2, 1 mM DTT, 3% BSA, temperature not stated; pull-down: oligos annealed in 10 mM Tris-HCl pH 7.4 with (G4) or without (ds) 100 mM KCl. The conditions noted are these: protein: recombinant; intramolecular G4.

T1 sequence (P08047 whole entry): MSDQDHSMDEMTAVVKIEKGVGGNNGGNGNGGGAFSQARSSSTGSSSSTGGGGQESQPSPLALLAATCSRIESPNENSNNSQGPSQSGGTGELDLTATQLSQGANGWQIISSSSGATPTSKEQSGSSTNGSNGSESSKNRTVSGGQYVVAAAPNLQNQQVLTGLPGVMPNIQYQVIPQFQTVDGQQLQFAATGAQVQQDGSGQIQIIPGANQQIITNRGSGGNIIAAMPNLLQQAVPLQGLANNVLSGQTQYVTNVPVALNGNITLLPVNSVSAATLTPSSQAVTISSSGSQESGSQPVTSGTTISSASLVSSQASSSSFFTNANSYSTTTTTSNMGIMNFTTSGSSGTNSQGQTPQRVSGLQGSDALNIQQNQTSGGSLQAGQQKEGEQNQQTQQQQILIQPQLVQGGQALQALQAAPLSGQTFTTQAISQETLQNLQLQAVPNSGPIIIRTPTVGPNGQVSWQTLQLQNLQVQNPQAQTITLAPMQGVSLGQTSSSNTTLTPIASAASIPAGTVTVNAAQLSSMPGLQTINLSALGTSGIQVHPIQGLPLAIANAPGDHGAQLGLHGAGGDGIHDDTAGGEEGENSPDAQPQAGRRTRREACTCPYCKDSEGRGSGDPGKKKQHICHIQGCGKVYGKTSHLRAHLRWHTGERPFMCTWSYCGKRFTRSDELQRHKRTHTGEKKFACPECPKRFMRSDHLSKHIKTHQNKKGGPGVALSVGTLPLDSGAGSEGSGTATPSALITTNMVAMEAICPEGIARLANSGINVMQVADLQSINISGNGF

Take TTTTTTAAGAGCGTTAAGAGCGTGAACAAGG (ssDNA) [MYC MUT ss]: the binding result in the data set with SP1 [1] is listed as “no binding”.
Consider TTTTTGGGGAGGGTGGGGAGGGTGGGGAAGG (structured_DNA) [MYC G4 ss], for which the Kd with SP1 [2] worked out at 5.6 nM.

The values are drawn from publication PMC10873556, “G-quadruplex DNA structure is a positive regulator of MYC transcription”.
